From patent publication US20170058036A1 (published 2017)

Tests used:
[1] = molecular target: rat DEspR on rat neutrophils (rat); experiment: cell-based or functional assay
[2] = molecular target: rat DEspR on rat neutrophils (rat); experiment: cell-based or functional assay; remark: listed apart in the source
[3] = molecular target: T1, human dual endothelin-1/VEGF signal peptide receptor (DEspR) on intact cells (human, UniProt B0L3A2 1-85); experiment: FACS, AF-568-labeled mAb on Panc1 cells
T1 construct: also called hDEspR; DEAR
T1 sequence: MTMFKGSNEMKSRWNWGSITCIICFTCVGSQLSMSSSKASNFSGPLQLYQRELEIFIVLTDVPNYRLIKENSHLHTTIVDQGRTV
Experimental: (§1) Binding was quantified by FACS with corresponding isotype labeled antibodies as background controls. […] Furthermore, 6G8 humanized monoclonal antibodies were developed using two different human IgG Fc regions-human IgG1 and hinge-stabilized human IgG4, thus affirming high-affinity binding.
(§2) Neutrophils (50000/well) were incubated in the absence or presence of mAbs at 37° C. × 4 hrs and live cells counted by using Trypan blue. HUVEC-dependent angiogenesis (20,000 cells/well) was performed as described in the presence or absence of mAbs. Number of polygons and number of branch points were determined after 14 hrs of incubation at 37° C. ND, not done, indeterminate, value greater than upper limit of max dose used in these experiments.

[4] = molecular target: T1, human dual endothelin-1/VEGF signal …; experiment: FACS, binding to DEspR on intact human cells at 4° C
Experimental: as §1
Binding was determined by FACS analysis.
as §2

[5] = molecular target: T1, human dual endothelin-1/VEGF signal …; experiment: saturation binding of AF568-labelled mAb to DEspR+ Panc1 cells, FACS
Experimental: Saturation binding curves of monoclonal antibody (mAb) binding to DEspR on Panc1 CSCs. […] Specific binding was determined by FACS analysis using 100,000 cells in 0.25 ml containing increasing concentrations of mAbs. Incubations were done at 4° C. for 20 min and immediately subjected to FACS analysis on a BDTM LSRII Flow cytometer. Each data point was performed in duplicate.
Fully human VH5/VK1 has a slightly better Kd than VH3/VK2 fully human composite antibodies. […] (FIG. 16).

Binder	Rat Neutrophil survival, IC50 [1] [µg/mL]	Rat activated Neutrophil survival, IC50 [2] [µg/mL]	EC50 [3] [nM]	EC50 [4] [nM]	Kd [5] [nM]
6g8g7-derived IgG4 humanized monoclonal antibody 1 (antibody, Hinge-stabilized (S228P) human IgG4 / kappa, transiently expressed in HEK293; also called 6g8^IgG4 humab1; 6g8IgG4 humab1) heavy: not shown light: DIVLTQSPDILSVSLGERATVNCKASQNVDSNVAWYQQKPGHPPKLLIYSASYRYSRVPDRISGSGSGTDFTLTISNLQAEDVAVYYCQQYHSYPLLAFGAGTKLELKRTVAAPSVFIFPPSDEQLKSGTASVVCLLNNFYPREAKVQWKVDNALQSGNSQESVTEQDSKDSTYSLSSTLTLSKADYEKHKVYACEVTHQGLSSPVTKSFNRGEC	1.16	1.16	21.1	21.1	–
IgG1 6G8G7 humanized monoclonal antibody (antibody) heavy: not shown light: DIVLTQSPDILSVSLGERATVNCKASQNVDSNVAWYQQKPGHPPKLLIYSASYRYSRVPDRISGSGSGTDFTLTISNLQAEDVAVYYCQQYHSYPLLAFGAGTKLELKRTVAAPSVFIFPPSDEQLKSGTASVVCLLNNFYPREAKVQWKVDNALQSGNSQESVTEQDSKDSTYSLSSTLTLSKADYEKHKVYACEVTHQGLSSPVTKSFNRGEC	6.98	6.98	–	–	–
6G8G7 murine anti-DEspR monoclonal antibody (antibody, V domains shown) VH: EVQLQESGGGLVQPGGSLKLSCAASGFDFSRYWMSWVRQAPGKGLEWIGEINPDSSTINYTPSLKDKFIISRDTAKKTLYLQMSKVRSEDTALYYCARHGRGMDYWSQGTSVTVSS VL: DIVLTQTNQIMSASVGDRVSVTCKASQNVDSNVAWYQQKPGHSPKALIYSASYRYSRVPDRITGSGSGTDFTLTITNVQSKDLADYFCQQYHSYPLLAFGAGTKLELKR	–	–	–	–	~33
7C5B2 murine anti-human DEspR monoclonal antibody (antibody, V domains shown, Murine hybridoma antibody raised against the 9-aa N-terminal peptide of DEspR; An IgG2b isotype control was used with it; It was AF568-labelled in the FACS and imaging assays; also called 7C5-murine monoclonal antibody; lead mouse prototype anti-human DEspR monoclonal antibody) VH: QVQLKESGPGLVAPSQSLSITCTVSGFSLKSYAVSWVRQPPGKGLEWLGVIWGDGSTDYHSALISRLSISKDNSKSQFFLRLNSLQTDDTATYYCARGTGTGFAYWGQGTLVTVSA VL: DVVMTQTPLSLPVSLGDQASISCRSSQSLVHSNGNTYLHWYLQKPGQSPKLLIYKVSNRFSGVPDRFSGSGSGTDFTLKISRVEAEDLGIYFCSQCTHIPWTFGGGTNLEIK	–	–	–	–	~33
